Experimental data reported in patent US20230038638A1, “COMPLEMENT FACTOR I-RELATED COMPOSITIONS AND METHODS” (published 2023).

What was measured:
human C4b (human) = molecular target: T1, human C4b (human) (UniProt P0C0L4)
T1 sequence: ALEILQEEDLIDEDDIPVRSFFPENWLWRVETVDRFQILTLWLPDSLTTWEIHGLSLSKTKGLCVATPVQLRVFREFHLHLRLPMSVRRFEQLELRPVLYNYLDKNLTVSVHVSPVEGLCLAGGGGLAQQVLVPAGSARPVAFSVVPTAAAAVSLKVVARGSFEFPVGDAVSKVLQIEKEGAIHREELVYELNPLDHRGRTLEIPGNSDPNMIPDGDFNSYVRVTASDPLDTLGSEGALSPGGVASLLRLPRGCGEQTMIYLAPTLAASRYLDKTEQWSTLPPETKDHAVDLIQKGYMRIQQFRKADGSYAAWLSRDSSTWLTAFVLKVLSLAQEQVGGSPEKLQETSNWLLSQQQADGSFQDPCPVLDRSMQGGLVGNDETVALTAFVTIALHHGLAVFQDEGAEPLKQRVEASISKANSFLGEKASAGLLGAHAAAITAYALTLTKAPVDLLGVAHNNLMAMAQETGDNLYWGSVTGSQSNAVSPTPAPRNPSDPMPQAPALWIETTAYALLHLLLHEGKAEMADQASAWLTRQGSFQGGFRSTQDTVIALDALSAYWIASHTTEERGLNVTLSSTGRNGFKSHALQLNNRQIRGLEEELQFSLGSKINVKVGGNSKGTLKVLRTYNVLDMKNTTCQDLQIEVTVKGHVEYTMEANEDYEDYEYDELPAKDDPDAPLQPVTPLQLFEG

[1] = molecular target: soluble human C3b (human) (UniProt P01024)

| Substance | C4b Screen Ref Fold (fold of CFI-HSA wild type) (human C4b (human)) | iC3b Screen Ref Fold (fold of CFI-HSA wild type) [1] | C4b Screen Ref Fold (fold of reference) (human C4b (human)) | iC3b Screen Ref Fold (fold of reference) [1] |
| --- | --- | --- | --- | --- |
| CFI-HSA K504D; Y408L; N531G (enzyme) | 3.45 | 0.07 |  |  |
| CFI-HSA K534S (enzyme) | 2.65 | 0.92 |  |  |
| CFI-HSA D425Q (enzyme) | 1.83 | 1.87 |  |  |
| CFI-HSA variant E530Y; P558S (enzyme) | 0.43 | 1.62 |  |  |
| CFI-HSA F464A (enzyme) | -0.01 | 0.02 |  |  |
| CFI-HSA D506H (enzyme) | 0.31 | 0 |  |  |
| CFI-HSA variant I382G (enzyme) | 0.33 | -0.03 |  |  |
| CFI-HSA variant D425K; Y408M; E530F; F537K; K504R; P558S (enzyme) | 0.11 | 0.01 |  |  |
| CFI-HSA N531G; P535A; S507A (enzyme) | 0.26 | -0.02 |  |  |
| CFI-HSA variant E461S (enzyme) |  |  | 1.32 | 0.95 |
| CFI-HSA D506M (enzyme) | 0.05 | 0.01 |  |  |
| CFI-HSA K534E (enzyme) | 0.82 | 1.19 |  |  |
| CFI-HSA H362T; V463S; R456I; D459W; S343K (enzyme) | 0.04 | -0.02 |  |  |
| CFI-HSA D506L (enzyme) | 0.41 | -0.03 |  |  |
| CFI-HSA T407G; Y408L; E457G; N531G (enzyme) | 0.67 | 0.56 |  |  |
| CFI-HSA Y408L; N531G; E457G; F464Y (enzyme) | 6.45 | 0.84 |  |  |

| Substance | C4b Screen Ref Fold (fold of CFI-HSA wild type) (human C4b (human)) | iC3b Screen Ref Fold (fold of CFI-HSA wild type) [1] | C4b Screen Ref Fold (fold of reference) (human C4b (human)) | iC3b Screen Ref Fold (fold of reference) [1] |
| --- | --- | --- | --- | --- |
| CFI-HSA E461Q; R462K (enzyme) | 4.69 | 1.23 |  |  |
| CFI-HSA variant E457G; S507A (enzyme) | 0.1 | -0.02 |  |  |
| CFI-HSA N531G; E457G; E461Q; R462K (enzyme) | 6.67 | 1.55 |  |  |
| CFI-HSA K534L (enzyme) | 3.12 | 0.87 |  |  |
| CFI-HSA variant Y408M; S507A (enzyme) | -0.02 | -0.04 |  |  |
| CFI-HSA variant T346K (enzyme) |  |  | 0.57 | 0.96 |
| CFI-HSA variant E461P (enzyme) |  |  | -0.01 | 0.02 |
| CFI-HSA K534A (enzyme) | 1.14 | 1.31 |  |  |
| CFI-HSA Y408L; N531G; R462K; F464Y (enzyme) | 5.72 | 1.19 |  |  |
| CFI-HSA variant G406D; P535A (enzyme) |  |  | 0.95 | 0.13 |
| CFI-HSA variant T346R (enzyme) |  |  | 0.54 | 0.95 |
| CFI-HSA K534F (enzyme) | 0.97 | 0.91 |  |  |
| CFI-HSA N531G; E461Q; R462K (enzyme) | 6.42 | 2.21 |  |  |
| CFI-HSA variant K312A; R314A (enzyme) |  |  | 0.58 | 0.48 |
| CFI-HSA variant W381A; P384A (enzyme) |  |  | -0.05 | -0.03 |
